Assay results: the supplement of paper PMC10567573

B1: WEE1 (parent)
chain: FLGSSFSPVRCGGPGDASPRGCGA

Variants of: B1
Assay: protein stability index of a GFP-peptide fusion (GPS, HEK-293T) (PSI 1-6); higher = more stable
Settings: c terminus: a fixed tail appended
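Further: lentivirally expressed fusions sorted by FACS into six bins by GFP to DsRed ratio, PSI derived from sequencing read proportions per bin multiplied by bin number.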

Variant	protein stability index
FLGSSFSPVRCEGPGDASPRGCGA	2.03
FLGSSFSPVRCDGPGDASPRGCGA	1.85
FLGSSFSPVRCIGPGDASPRGCGA	1.3
FLGSSFSPVRCMGPGDASPRGCGA	1.83
FLGSSFSPVRCYGPGDASPRGCGA	2.65
FLGSSFSPVRCWGPGDASPRGCGA	1.9
FLGSSFSPVRCTGPGDASPRGCGA	1.63
FLGSSFSPVRCLGPGDASPRGCGA	2.44
FLGSSFSPVRCFGPGDASPRGCGA	1.43
FLGSSFSPVRCPGPGDASPRGCGA	2.38
FLGSSFSPVRCAGPGDASPRGCGA	1.78
FLGSSFSPVRCHGPGDASPRGCGA	3.11
FLGSSFSPVRCRGPGDASPRGCGA	2.1
FLGSSFSPVRCKGPGDASPRGCGA	2.31
FLGSSFSPVRCVGPGDASPRGCGA	1.43
FLGSSFSPVRCCGPGDASPRGCGA	2.04
FLGSSFSPVRCNGPGDASPRGCGA	2.56
FLGSSFSPVRCQGPGDASPRGCGA	2.07
FLGSSFSPVRCSGPGDASPRGCGA	2
FLGSSFSPVCCGGPGDASPRGCGA	1.73
FLGSSFSPVWCGGPGDASPRGCGA	4.78
FLGSSFSPVPCGGPGDASPRGCGA	2.04
FLGSSFSPVVCGGPGDASPRGCGA	2
FLGSSFSPVGCGGPGDASPRGCGA	1.42

Variant	protein stability index
FLGSSFSPVYCGGPGDASPRGCGA	1.07
FLGSSFSPVNCGGPGDASPRGCGA	2.33
FLGSSFSPVLCGGPGDASPRGCGA	2.52
FLGSSFSPVHCGGPGDASPRGCGA	2.63
FLGSSFSPVTCGGPGDASPRGCGA	2.25
FLGSSFSPVSCGGPGDASPRGCGA	1.8
FLGSSFSPVECGGPGDASPRGCGA	3.27
FLGSSFSPVFCGGPGDASPRGCGA	2.95
FLGSSFSPVMCGGPGDASPRGCGA	1.64
FLGSSFSPVQCGGPGDASPRGCGA	1.84
FLGSSFSPVICGGPGDASPRGCGA	2.25
FLGSSFSPVDCGGPGDASPRGCGA	2.68
FLGSSFSPVACGGPGDASPRGCGA	1.83
FLGSSFSPVKCGGPGDASPRGCGA	2.68
FLGASFSPVRCGGPGDASPRGCGA	1.79
FLGDSFSPVRCGGPGDASPRGCGA	2.39
FLGHSFSPVRCGGPGDASPRGCGA	1.24
FLGESFSPVRCGGPGDASPRGCGA	2.65
FLGGSFSPVRCGGPGDASPRGCGA	2.16
FLGFSFSPVRCGGPGDASPRGCGA	1.93
FLGQSFSPVRCGGPGDASPRGCGA	1.86
FLGYSFSPVRCGGPGDASPRGCGA	1.75
FLGRSFSPVRCGGPGDASPRGCGA	1.69
FLGKSFSPVRCGGPGDASPRGCGA	2.34

Variant	protein stability index
FLGMSFSPVRCGGPGDASPRGCGA	2.06
FLGNSFSPVRCGGPGDASPRGCGA	2.07
FLGTSFSPVRCGGPGDASPRGCGA	1.56
FLGISFSPVRCGGPGDASPRGCGA	2.49
FLGLSFSPVRCGGPGDASPRGCGA	1.48
FLGPSFSPVRCGGPGDASPRGCGA	1.82
FLGVSFSPVRCGGPGDASPRGCGA	1.46
FLGCSFSPVRCGGPGDASPRGCGA	2.19
FLGSSFPPVRCGGPGDASPRGCGA	1.36
FLGSSFAPVRCGGPGDASPRGCGA	1.4
FLGSSFQPVRCGGPGDASPRGCGA	1.93
FLGSSFDPVRCGGPGDASPRGCGA	3.47
FLGSSFGPVRCGGPGDASPRGCGA	2.73
FLGSSFMPVRCGGPGDASPRGCGA	2.48
FLGSSFVPVRCGGPGDASPRGCGA	1.03
FLGSSFNPVRCGGPGDASPRGCGA	2.22
FLGSSFIPVRCGGPGDASPRGCGA	2.34
FLGSSFFPVRCGGPGDASPRGCGA	1.12
FLGSSFLPVRCGGPGDASPRGCGA	1.48
FLGSSFEPVRCGGPGDASPRGCGA	2.5
FLGSSFKPVRCGGPGDASPRGCGA	2.47
FLGSSFYPVRCGGPGDASPRGCGA	2.16
FLGSSFRPVRCGGPGDASPRGCGA	2.38
FLGSSFTPVRCGGPGDASPRGCGA	2.9

Variant	protein stability index
FLGSSFHPVRCGGPGDASPRGCGA	1.81
FLGSSFCPVRCGGPGDASPRGCGA	2.41
FLGSLFSPVRCGGPGDASPRGCGA	2.13
FLGSTFSPVRCGGPGDASPRGCGA	1.59
FLGSGFSPVRCGGPGDASPRGCGA	1.91
FLGSEFSPVRCGGPGDASPRGCGA	1.52
FLGSAFSPVRCGGPGDASPRGCGA	1.98
FLGSFFSPVRCGGPGDASPRGCGA	4.63
FLGSDFSPVRCGGPGDASPRGCGA	2.37
FLGSHFSPVRCGGPGDASPRGCGA	1.73
FLGSNFSPVRCGGPGDASPRGCGA	1.92
FLGSPFSPVRCGGPGDASPRGCGA	2.17
FLGSIFSPVRCGGPGDASPRGCGA	1.92
FLGSVFSPVRCGGPGDASPRGCGA	1.39
FLGSMFSPVRCGGPGDASPRGCGA	2.27
FLGSRFSPVRCGGPGDASPRGCGA	1.63
FLGSKFSPVRCGGPGDASPRGCGA	1.8
FLGSQFSPVRCGGPGDASPRGCGA	1.58
FLGSYFSPVRCGGPGDASPRGCGA	2.51
FLSSSFSPVRCGGPGDASPRGCGA	1.92
FLASSFSPVRCGGPGDASPRGCGA	2.19
FLVSSFSPVRCGGPGDASPRGCGA	2.51
FLFSSFSPVRCGGPGDASPRGCGA	2.67
FLQSSFSPVRCGGPGDASPRGCGA	2.33

Variant	protein stability index
FLLSSFSPVRCGGPGDASPRGCGA	1.65
FLCSSFSPVRCGGPGDASPRGCGA	1.91
FLYSSFSPVRCGGPGDASPRGCGA	1.91
FLKSSFSPVRCGGPGDASPRGCGA	2.16
FLHSSFSPVRCGGPGDASPRGCGA	2.85
FLMSSFSPVRCGGPGDASPRGCGA	1.68
FLTSSFSPVRCGGPGDASPRGCGA	1.48
FLISSFSPVRCGGPGDASPRGCGA	2.82
FLRSSFSPVRCGGPGDASPRGCGA	2.34
FLESSFSPVRCGGPGDASPRGCGA	2.58
FLNSSFSPVRCGGPGDASPRGCGA	1.32
FLPSSFSPVRCGGPGDASPRGCGA	2.12
FLDSSFSPVRCGGPGDASPRGCGA	2.02
FLWSSFSPVRCGGPGDASPRGCGA	2.79
FLGSSFSPSRCGGPGDASPRGCGA	1.88
FLGSSFSPNRCGGPGDASPRGCGA	2.51
FLGSSFSPMRCGGPGDASPRGCGA	2.69
FLGSSFSPHRCGGPGDASPRGCGA	2.22
FLGSSFSPQRCGGPGDASPRGCGA	1.76
FLGSSFSPTRCGGPGDASPRGCGA	1.88
FLGSSFSPDRCGGPGDASPRGCGA	2.58
FLGSSFSPERCGGPGDASPRGCGA	2.79
FLGSSFSPLRCGGPGDASPRGCGA	1.1
FLGSSFSPGRCGGPGDASPRGCGA	2.25

Variant	protein stability index
FLGSSFSPPRCGGPGDASPRGCGA	2.58
FLGSSFSPRRCGGPGDASPRGCGA	2.39
FLGSSFSPARCGGPGDASPRGCGA	2.11
FLGSSFSPKRCGGPGDASPRGCGA	1.93
FLGSSFSPWRCGGPGDASPRGCGA	2.19
FLGSSFSPIRCGGPGDASPRGCGA	1.8
FLGSSFSPCRCGGPGDASPRGCGA	3.15
FLGSSFSPYRCGGPGDASPRGCGA	1.25
FLGSSFSPVRRGGPGDASPRGCGA	2.69
FLGSSFSPVREGGPGDASPRGCGA	2.39
FLGSSFSPVRMGGPGDASPRGCGA	2.4
FLGSSFSPVRWGGPGDASPRGCGA	1.46
FLGSSFSPVRHGGPGDASPRGCGA	2.1
FLGSSFSPVRTGGPGDASPRGCGA	2.27
FLGSSFSPVRIGGPGDASPRGCGA	2.12
FLGSSFSPVRKGGPGDASPRGCGA	1.91
FLGSSFSPVRSGGPGDASPRGCGA	2.62
FLGSSFSPVRQGGPGDASPRGCGA	2.48
FLGSSFSPVRDGGPGDASPRGCGA	3.3
FLGSSFSPVRNGGPGDASPRGCGA	2.53
FLGSSFSPVRGGGPGDASPRGCGA	2.34
FLGSSFSPVRYGGPGDASPRGCGA	2.01
FLGSSFSPVRVGGPGDASPRGCGA	1.95
FLGSSFSPVRLGGPGDASPRGCGA	2.22

Variant	protein stability index
FLGSSFSPVRPGGPGDASPRGCGA	2.44
FLGSSFSPVRAGGPGDASPRGCGA	2.78
FLGSSFSPVRFGGPGDASPRGCGA	2.19
FLGSSFSPVRCGEPGDASPRGCGA	1.52
FLGSSFSPVRCGAPGDASPRGCGA	1.94
FLGSSFSPVRCGFPGDASPRGCGA	1.51
FLGSSFSPVRCGDPGDASPRGCGA	1.57
FLGSSFSPVRCGCPGDASPRGCGA	2.58
FLGSSFSKVRCGGPGDASPRGCGA	1.66
FLGSSFSYVRCGGPGDASPRGCGA	1.78
FLGSSFSIVRCGGPGDASPRGCGA	1.23
FLGSSFSEVRCGGPGDASPRGCGA	2.23
FLGSSFSLVRCGGPGDASPRGCGA	2.15
FLGSSFSGVRCGGPGDASPRGCGA	1.81
FLGSSFSMVRCGGPGDASPRGCGA	1.85
FLGSSFSAVRCGGPGDASPRGCGA	1.38
FLGSSFSWVRCGGPGDASPRGCGA	2.83
FLGSSFSQVRCGGPGDASPRGCGA	1.64
FLGSSFSTVRCGGPGDASPRGCGA	1.43
FLGSSFSDVRCGGPGDASPRGCGA	1.97
FLGSSFSVVRCGGPGDASPRGCGA	1.97
FLGSSFSNVRCGGPGDASPRGCGA	2.05
FLGSSFSRVRCGGPGDASPRGCGA	1.48
FLGSSFSHVRCGGPGDASPRGCGA	1.71

Variant	protein stability index
FLGSSFSFVRCGGPGDASPRGCGA	2.49
FLGSSFSSVRCGGPGDASPRGCGA	2.51
FLGSSNSPVRCGGPGDASPRGCGA	3.06
FLGSSRSPVRCGGPGDASPRGCGA	2.95
FLGSSASPVRCGGPGDASPRGCGA	2.17
FLGSSYSPVRCGGPGDASPRGCGA	1.81
FLGSSHSPVRCGGPGDASPRGCGA	2.48
FLGSSCSPVRCGGPGDASPRGCGA	3.15
FLGSSVSPVRCGGPGDASPRGCGA	2.15
FLGSSPSPVRCGGPGDASPRGCGA	3.52
FLGSSKSPVRCGGPGDASPRGCGA	3
FLGSSMSPVRCGGPGDASPRGCGA	3.29
FLGSSGSPVRCGGPGDASPRGCGA	3.36
FLGSSISPVRCGGPGDASPRGCGA	3.26
FLGSSSSPVRCGGPGDASPRGCGA	2.87
FLGSSTSPVRCGGPGDASPRGCGA	2.76
FLGSSQSPVRCGGPGDASPRGCGA	3.41
FLGSSESPVRCGGPGDASPRGCGA	3.91
FLGSSDSPVRCGGPGDASPRGCGA	3.42
FLGSSLSPVRCGGPGDASPRGCGA	2.84
